Data as given in US12630594B2, “Allergy antigen and epitope for same” (HOYU CO., LTD., priority 2017, dated 2026).

Tested on: IgE antibody in the serum of a fish-allergic patient
Assay: Immunoblotting of two-dimensional electrophoresis patterns of fish meat proteins with patient serum
Assay type: binding, human
Settings: spots in two-dimensional electrophoresis gel of proteins in fish; patients diagnosed with immediate-type allergy
Procedure: Proteins contained in fish were analyzed by the aforementioned technique to identify antigens of an allergy to fish. To be specific, proteins were extracted from fish meat and subjected to two-dimensional electrophoresis under the conditions described below.
The electrophoresis in the first dimension was isoelectric focusing, which was performed using isoelectric focusing gels with a gel-strip length of 5 to 10 cm and a gel pH range of 3 to 10. The pH gradient of the gels in the direction of electrophoresis was as follows: with the total gel-strip length being taken as 1, the gel-strip length up to pH 5 was “a=0.15 to 0.3”, the gel-strip length from pH 5 to 7 was “b=0.4 to 0.7”, and the gel-strip length above pH 7 was “c=0.15 to 0.3”. More specifically, the isoelectric focusing was performed using the IPG gels, Immobiline Drystrip (pH3-10NL), produced by GE Healthcare Bio-Sciences Corporation (hereinafter abbreviated as “GE”). The electrophoresis system used was IPGphor produced by GE. The maximum current of the electrophoresis system was limited to 75 μA per gel strip. The voltage program adopted to perform the first-dimensional isoelectric focusing was as follows: (1) a constant voltage step was performed at a constant voltage of 300 V until the volt-hours reached 750 Vhr (the current variation width during electrophoresis for 30 minutes before the end of this step was 5 μA); (2) the voltage was increased gradually to 1000 V for 300 Vhr; (3) the voltage was further increased gradually to 5000 V for 4500 Vhr; and then (4) the voltage was held at a constant voltage of 5000 V until the total Vhr reached 12000.
The electrophoresis in the second dimension was SDS-PAGE, which was performed using polyacrylamide gels whose gel concentration at the distal end in the direction of electrophoresis was set to 3 to 6% and whose gel concentration at the proximal end was set to a higher value than that at the distal end. More specifically, the SDS-PAGE was performed using NuPAGE 4-12% Bris-Tris Gels (IPG well, Mini, 1 mm) produced by Life Technologies. The electrophoresis system used was XCell SureLock Mini-Cell produced by Life Technologies. The electrophoresis was run at a constant voltage of 200 V for about 45 minutes using an electrophoresis buffer composed of 50 mM MOPS, 50 mM Tris base, 0.1% (w/v) SDS and 1 mM EDTA.
Identification of antigens by immunoblotting was carried out by taking all the steps up to the step of “Second-dimensional SDS-PAGE” as described above in Example 1, followed by the steps of “Transfer to membrane”, “Immunoblotting” and “Analysis” as described below.
To be specific, proteins in the second-dimensional electrophoresis gels were transferred to a membrane (PVDF membrane) according to the following procedure. • (1) The PVDF membrane was immersed in 100% methanol followed by milliQ water, and then moved into the transfer buffer to hydrophilize the PVDF membrane. • (2) After sponge, filter paper, the second-dimensional electrophoresis gels treated by second-dimensional SDS-PAGE, the hydrophilized PVDF membrane, filter paper, and sponge were put in place in this order, the transfer system was energized at a constant voltage of 30 V for one hour. Immunoblotting
Immunoblotting of the membrane was carried out using, as a primary antibody, a serum sample from patient 1 with a fish allergy or a serum sample from a non-fish-allergic subject. This fish-allergic patient 1 was a patient diagnosed with immediate-type allergy to fish. […]

specific binding to IgE antibodies from fish-allergic patients: specific binding to IgE antibodies
B1: Serotransferrin (protein)
chain: MKLLLVSALLGCFATVYAAPAEGMVRWCVKSEKELKKCHDLAANVAGFSCVRRDDSLECIQAIKREEADAITLDGGDIYIAGLHNYNLQPIIAEDYGEDSDTCYYAVAVAKKGTEFGFLDLRGKKSCHTGLGKSAGWNIPIGTLVTVGQIQWAGIEDRPVESAVSDFFNASCAPGANRDSQLCQLCMGDCSRSHNEPYYDYSGAFQCLKDGAGEVAFIKHLTVPAAEKASYELLCKDNTRAPIDSYKTCHLARVPAHAVVSRKDPRLANLIYSKLMAVTNFNLFSSDGYAAKNLMFKDSTQNLVQLPMTTDSFLYLGAEYMSTIRSLTKAQATGVTSRAIKWCAVGHKEKVKCDAWTINSFTDGDSRIECQDAPTVDECIKKIMRKEADAIAVDGGEVFTAGKCGLVPVMVEQYDEVRCSAPGEASSYFAVAVAKRGSGLTWTTLKGKRSCHTGLGRTAGWNIPMGLIHRRTMNCDFTTYFSKGCAPGFEVDSPFCAQCKGSGKSVGGDGSKCKASSEEQYYGYNGAFRCLVEDAGDVAFIKHTIVPEMTDGSGPVWAQNLMSSDFELLCQDGTTKPVTHFRECHLAKVPAHAVITRPESRGEVVSILLEQQARFGSSGSDSSFNMFKPDFGKNLLFKDSTKCLQEIPSGTKFQGFLGEEYMIAMQSLRECSNSTSDLEKACTFHSC
modifications: Serotransferrin
